# Assay results published in US20200199213A1 (Eli Lilly, published 2020).
# T1: mouse LPL (mouse, UniProt P11152 28-474)
# T1 sequence (looked up): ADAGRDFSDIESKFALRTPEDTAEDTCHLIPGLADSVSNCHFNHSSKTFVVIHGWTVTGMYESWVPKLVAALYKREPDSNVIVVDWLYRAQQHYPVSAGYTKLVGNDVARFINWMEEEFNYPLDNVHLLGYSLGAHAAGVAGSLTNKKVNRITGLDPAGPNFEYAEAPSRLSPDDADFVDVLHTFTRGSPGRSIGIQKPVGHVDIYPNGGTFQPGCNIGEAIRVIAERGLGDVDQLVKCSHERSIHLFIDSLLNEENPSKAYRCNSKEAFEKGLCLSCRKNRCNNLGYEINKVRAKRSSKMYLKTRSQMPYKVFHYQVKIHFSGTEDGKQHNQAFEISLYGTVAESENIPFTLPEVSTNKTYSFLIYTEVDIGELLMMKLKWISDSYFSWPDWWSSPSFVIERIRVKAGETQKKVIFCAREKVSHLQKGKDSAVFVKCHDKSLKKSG
# B1: mouse ANGPTL3/8 complex (other)
# chain 1: SRVDPDLSSFDSAPSEPKSRFAMLDDVKILANGLLQLGHGLKDFVHKTKGQINDIFQKLNIFDQSFYDLSLRTNEIKEEEKELRRTTSTLQVKNEEVKNMSVELNSKLESLLEEKTALQHKVRALEEQLTNLILSPAGAQEHPEVTSLKSFVEQQDNSIRELLQSVEEQYKQLSQQHMQIKEIEKQLRKTGIQEPSENSLSSKSRAPRTTPPLQLNETENTEQDDLPADCSAVYNRGEHTSGVYTIKPRNSQGFNVYCDTQSGSPWTLIQHRKDGSQDFNETWENYEKGFGRLDGEFWLGLEKIYAIVQQSNYILRLELQDWKDSKHYVEYSFHLGSHETNYTLHVAEIAGNIPGALPEHTDLMFSTWNHRAKGQLYCPESYSGGWWWNDICGENNLNGKYNKPRTKSRPERRRGIYWRPQSRKLYAIKSSKMMLQPTT
# chain 2: VRPAPVAPLGGPEPAQYEELTLLFHGALQLGQALNGVYRATEARLTEAGHSLGLYDRALEFLGTEVRQGQDATQELRTSLSEIQVEEDALHLRAEATARSLGEVARAQQALRDTVRRLQVQLRGAWLGQAHQEFETLKARADKQSHLLWALTGHVQRQQREMAEQQQWLRQIQQRLHTAALPA
# Target: T1, mouse LPL
# Test: cell-based or functional assay
binder,measurement,value
B1,IC80 concentration (inhibition of LPL activity),0.13 nM
